# Laboratory results published in patent US20240343802A1 (Zymeworks, published 2024).
# T1: CD20 on CD19 and CD20-expressing Raji B cells (human, UniProt P11836 1-297)
# T1 construct: whole, on cells
# T1 sequence (looked up): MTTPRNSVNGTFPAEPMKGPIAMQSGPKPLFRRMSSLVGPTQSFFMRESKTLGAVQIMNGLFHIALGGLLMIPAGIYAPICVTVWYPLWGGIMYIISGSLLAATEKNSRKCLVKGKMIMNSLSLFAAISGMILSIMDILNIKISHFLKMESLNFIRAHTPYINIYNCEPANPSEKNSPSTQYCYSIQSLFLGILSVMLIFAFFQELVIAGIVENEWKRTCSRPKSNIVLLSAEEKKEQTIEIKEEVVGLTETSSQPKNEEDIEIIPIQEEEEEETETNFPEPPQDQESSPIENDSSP
# T2: CD19 on CD19-expressing Raji B cells (human, UniProt P15391 20-556)
# T2 construct: whole, on cells
# T2 sequence (looked up): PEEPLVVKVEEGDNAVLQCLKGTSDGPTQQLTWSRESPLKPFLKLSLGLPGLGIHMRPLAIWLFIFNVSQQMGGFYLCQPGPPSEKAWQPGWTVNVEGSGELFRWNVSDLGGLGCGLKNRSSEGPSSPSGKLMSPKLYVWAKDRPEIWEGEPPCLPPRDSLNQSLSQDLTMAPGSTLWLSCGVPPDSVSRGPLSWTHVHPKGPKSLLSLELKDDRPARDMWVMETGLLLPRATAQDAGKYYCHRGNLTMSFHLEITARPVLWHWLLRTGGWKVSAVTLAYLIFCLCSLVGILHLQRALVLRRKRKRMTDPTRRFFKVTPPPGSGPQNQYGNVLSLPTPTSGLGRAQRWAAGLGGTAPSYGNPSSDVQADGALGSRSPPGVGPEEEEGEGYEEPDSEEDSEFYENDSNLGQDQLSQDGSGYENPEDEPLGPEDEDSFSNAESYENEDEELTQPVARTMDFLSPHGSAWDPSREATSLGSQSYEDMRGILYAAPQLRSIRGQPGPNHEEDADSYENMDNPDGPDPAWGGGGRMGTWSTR
# Assays:
# [1] = biological target: T1, CD20 on CD19 and CD20-expressing Raji B …; assay: FACS, Raji cells
# [2] = biological target: T3, CD3 on CD3-expressing T cells (Jurkat, HPB-ALL) (UniProt P07766 23-207); assay: FACS, Jurkat cells
# T3 construct: whole, on cells; A multi-chain complex on cells; also called CD3 complex
# [3] = biological target: T2, CD19 on CD19-expressing Raji B cells; assay: FACS, Raji cells
Binder,Bmax (OD450) [1] [OD450],Kd [1] [µM],Bmax (OD450) [2] [OD450],Kd [2] [µM],Bmax (OD450) [3] [OD450],Kd [3] [µM]
"v5850, hybrid: aCD3-BiTEx_I2C_scFvFc (VHVL) chain A / aCD20-Ofatumumab_Fab chain B and light chain (bispecific antibody) chain 1: not shown chain 2: not shown chain 3: not shown",4.24,0.0036,–,–,–,–
"v6325, hybrid: aCD3-Teplizumab-hOKT3_Fab chain A and light chain / aCD20-Ofatumumab_scFvFc (VHVL) chain B (bispecific antibody, human IgG1, kappa) chain 1: QVQLVQSGGGVVQPGRSLRLSCKASGYTFTRYTMHWVRQAPGKGLEWIGYINPSRGYTNYNQKVKDRFTISRDNSKNTAFLQMDSLRPEDTGVYFCARYYDDHYCLDYWGQGTPVTVSSASTKGPSVFPLAPSSKSTSGGTAALGCLVKDYFPEPVTVSWNSGALTSGVHTFPAVLQSSGLYSLSSVVTVPSSSLGTQTYICNVNHKPSNTKVDKKVEPKSCDKTHTCPPCPAPELLGGPSVFLFPPKPKDTLMISRTPEVTCVVVDVSHEDPEVKFNWYVDGVEVHNAKTKPREEQYNSTYRVVSVLTVLHQDWLNGKEYKCKVSNKALPAPIEKTISKAKGQPREPQVYVYPPSRDELTKNQVSLTCLVKGFYPSDIAVEWESNGQPENNYKTTPPVLDSDGSFALVSKLTVDKSRWQQGNVFSCSVMHEALHNHYTQKSLSLSPGK chain 2: not shown chain 3: DIQMTQSPSSLSASVGDRVTITCSASSSVSYMNWYQQTPGKAPKRWIYDTSKLASGVPSRFSGSGSGTDYTFTISSLQPEDIATYYCQQWSSNPFTFGQGTKLQITRTVAAPSVFIFPPSDEQLKSGTASVVCLLNNFYPREAKVQWKVDNALQSGNSQESVTEQDSKDSTYSLSSTLTLSKADYEKHKVYACEVTHQGLSSPVTKSFNRGEC",6.44,0.0119,2.51,0.00158,–,–
"v1821, common light chain: aCD3-12F6_Fab chain A / aCD20-Rituximab_Fab chain B, Rituximab light chain (bispecific antibody, human IgG1, kappa, The single light chain is shared by both Fabs) chain 1: QVQLVQSGGGVVQPGRSLRLSCKASGYTFTSYTMHWVRQAPGKGLEWIGYINPSSGYTKYNQKFKDRFTISADKSKSTAFLQMDSLRPEDTGVYFCARWQDYDVYFDYWGQGTPVTVSSASTKGPSVFPLAPSSKSTSGGTAALGCLVKDYFPEPVTVSWNSGALTSGVHTFPAVLQSSGLYSLSSVVTVPSSSLGTQTYICNVNHKPSNTKVDKKVEPKSCDKTHTCPPCPAPELLGGPSVFLFPPKPKDTLMISRTPEVTCVVVDVSHEDPEVKFNWYVDGVEVHNAKTKPREEQYNSTYRVVSVLTVLHQDWLNGKEYKCKVSNKALPAPIEKTISKAKGQPREPQVYVYPPSRDELTKNQVSLTCLVKGFYPSDIAVEWESNGQPENNYKTTPPVLDSDGSFALVSKLTVDKSRWQQGNVFSCSVMHEALHNHYTQKSLSLSPGK chain 2: not shown chain 3: QIVLSQSPAILSASPGEKVTMTCRASSSVSYIHWFQQKPGSSPKPWIYATSNLASGVPVRFSGSGSGTSYSLTISRVEAEDAATYYCQQWTSNPPTFGGGTKLEIKRTVAAPSVFIFPPSDEQLKSGTASVVCLLNNFYPREAKVQWKVDNALQSGNSQESVTEQDSKDSTYSLSSTLTLSKADYEKHKVYACEVTHQGLSSPVTKSFNRGEC",4.71,0.122,2.11,0.181,–,–
"v1823, common light chain: aCD3-12F6_Fab chain A / aCD20-Tositumumab_Fab chain B, Tositumumab light chain (bispecific antibody, human IgG1, kappa, The single light chain is shared by both Fabs) chain 1: QVQLVQSGGGVVQPGRSLRLSCKASGYTFTSYTMHWVRQAPGKGLEWIGYINPSSGYTKYNQKFKDRFTISADKSKSTAFLQMDSLRPEDTGVYFCARWQDYDVYFDYWGQGTPVTVSSASTKGPSVFPLAPSSKSTSGGTAALGCLVKDYFPEPVTVSWNSGALTSGVHTFPAVLQSSGLYSLSSVVTVPSSSLGTQTYICNVNHKPSNTKVDKKVEPKSCDKTHTCPPCPAPELLGGPSVFLFPPKPKDTLMISRTPEVTCVVVDVSHEDPEVKFNWYVDGVEVHNAKTKPREEQYNSTYRVVSVLTVLHQDWLNGKEYKCKVSNKALPAPIEKTISKAKGQPREPQVYVYPPSRDELTKNQVSLTCLVKGFYPSDIAVEWESNGQPENNYKTTPPVLDSDGSFALVSKLTVDKSRWQQGNVFSCSVMHEALHNHYTQKSLSLSPGK chain 2: not shown chain 3: QIVLSQSPAILSASPGEKVTMTCRASSSVSYMHWYQQKPGSSPKPWIYAPSNLASGVPARFSGSGSGTSYSLTISRVEAEDAATYYCQQWSFNPPTFGAGTKLELKRTVAAPSVFIFPPSDEQLKSGTASVVCLLNNFYPREAKVQWKVDNALQSGNSQESVTEQDSKDSTYSLSSTLTLSKADYEKHKVYACEVTHQGLSSPVTKSFNRGEC",–,–,0.88,0.0688,–,–
"v1813, common light chain: aCD3-foralumab_Fab chain A / aCD20-Ofatumumab_Fab chain B, Ofatumumab light chain (bispecific antibody, human IgG1, kappa, The single light chain is shared by both Fabs) chain 1: not shown chain 2: not shown chain 3: not shown",6.4,0.00404,2.54,0.691,–,–
"v4542, cyno/human cross-reactive anti-CD3 BiTE 12C (VH-VL) scFv / anti-CD19 MOR208 (VH-VL) scFv heterodimeric knock-out Fc (bispecific antibody) chain 1: not shown chain 2: EVQLVESGGGLVKPGGSLKLSCAASGYTFTSYVMHWVRQAPGKGLEWIGYINPYNDGTKYNEKFQGRVTISSDKSISTAYMELSSLRSEDTAMYYCARGTYYYGTRVFDYWGQGTLVTVSSGGGGSGGGGSGGGGSDIVMTQSPATLSLSPGERATLSCRSSKSLQNVNGNTYLYWFQQKPGQSPQLLIYRMSNLNSGVPDRFSGSGSGTEFTLTISSLEPEDFAVYYCMQHLEYPITFGAGTKLEIKAAEPKSSDKTHTCPPCPAPEAAGGPSVFLFPPKPKDTLMISRTPEVTCVVVSVSHEDPEVKFNWYVDGVEVHNAKTKPREEQYNSTYRVVSVLTVLHQDWLNGKEYKCKVSNKALPAPIEKTISKAKGQPREPQVYVLPPSRDELTKNQVSLLCLVKGFYPSDIAVEWESNGQPENNYLTWPPVLDSDGSFFLYSKLTVDKSRWQQGNVFSCSVMHEALHNHYTQKSLSLSPGK",–,–,–,–,2.96,0.0007
"v5852, hybrid: aCD3-Teplizumab-hOKT3_Fab chain A and light chain / aCD19-MOR208_scFvFc (VHVL) chain B (bispecific antibody, human IgG1, kappa, L234A L235A) chain 1: QVQLVQSGGGVVQPGRSLRLSCKASGYTFTRYTMHWVRQAPGKGLEWIGYINPSRGYTNYNQKVKDRFTISRDNSKNTAFLQMDSLRPEDTGVYFCARYYDDHYCLDYWGQGTPVTVSSASTKGPSVFPLAPSSKSTSGGTAALGCLVKDYFPEPVTVSWNSGALTSGVHTFPAVLQSSGLYSLSSVVTVPSSSLGTQTYICNVNHKPSNTKVDKKVEPKSCDKTHTCPPCPAPELLGGPSVFLFPPKPKDTLMISRTPEVTCVVVDVSHEDPEVKFNWYVDGVEVHNAKTKPREEQYNSTYRVVSVLTVLHQDWLNGKEYKCKVSNKALPAPIEKTISKAKGQPREPQVYVYPPSRDELTKNQVSLTCLVKGFYPSDIAVEWESNGQPENNYKTTPPVLDSDGSFALVSKLTVDKSRWQQGNVFSCSVMHEALHNHYTQKSLSLSPGK chain 2: EVQLVESGGGLVKPGGSLKLSCAASGYTFTSYVMHWVRQAPGKGLEWIGYINPYNDGTKYNEKFQGRVTISSDKSISTAYMELSSLRSEDTAMYYCARGTYYYGTRVFDYWGQGTLVTVSSGGGGSGGGGSGGGGSDIVMTQSPATLSLSPGERATLSCRSSKSLQNVNGNTYLYWFQQKPGQSPQLLIYRMSNLNSGVPDRFSGSGSGTEFTLTISSLEPEDFAVYYCMQHLEYPITFGAGTKLEIKAAEPKSSDKTHTCPPCPAPEAAGGPSVFLFPPKPKDTLMISRTPEVTCVVVSVSHEDPEVKFNWYVDGVEVHNAKTKPREEQYNSTYRVVSVLTVLHQDWLNGKEYKCKVSNKALPAPIEKTISKAKGQPREPQVYVLPPSRDELTKNQVSLLCLVKGFYPSDIAVEWESNGQPENNYLTWPPVLDSDGSFFLYSKLTVDKSRWQQGNVFSCSVMHEALHNHYTQKSLSLSPGK chain 3: DIQMTQSPSSLSASVGDRVTITCSASSSVSYMNWYQQTPGKAPKRWIYDTSKLASGVPSRFSGSGSGTDYTFTISSLQPEDIATYYCQQWSSNPFTFGQGTKLQITRTVAAPSVFIFPPSDEQLKSGTASVVCLLNNFYPREAKVQWKVDNALQSGNSQESVTEQDSKDSTYSLSSTLTLSKADYEKHKVYACEVTHQGLSSPVTKSFNRGEC",–,–,2.21,0.0252,–,–
"v5851, hybrid: aCD3-BiTEx_I2C_scFvFc (VHVL) chain A / aCD19-MOR208_Fab chain B and light chain (bispecific antibody) chain 1: not shown chain 2: not shown chain 3: DIVMTQSPATLSLSPGERATLSCRSSKSLQNVNGNTYLYWFQQKPGQSPQLLIYRMSNLNSGVPDRFSGSGSGTEFTLTISSLEPEDFAVYYCMQHLEYPITFGAGTKLEIKRTVAAPSVFIFPPSDEQLKSGTASVVCLLNNFYPREAKVQWKVDNALQSGNSQESVTEQDSKDSTYSLSSTLTLSKADYEKHKVYACEVTHQGLSSPVTKSFNRGEC",–,–,–,–,3.88,0.00138
